# Source: doi:10.1101/2024.08.29.607757 (bioRxiv, 2024)
# B1: NtcA from Synechococcus elongatus (strain PCC7942) with N-terminal His6 tag (natural protein)
# chain: MLANENSLLTMFRELGSGKLPLQIEQFERGKTIFFPGDPAERVYLLVKGAVKLSRVYESGEEITVALLRENSVFGVLSLLTGQRSDRFYHAVAFTPVQLFSVPIEFMQKALIERPELANVMLQGLSSRILQTEMMIETLAHRDMGSRLVSFLLILCRDFGIPSPDGITIDLKLSHQAIAEAIGSTRVTVTRLLGDLRESKLIAIHKKRITVFNPVALSQQFS
# B2: PipX from Synechococcus elongatus (strain PCC7942) with N-terminal His6 tag (natural protein)
# chain: MASENYLNHPTFGLLYQICSFGDSKELFATLYAQRLFFLVAFDARGTRFEPIGRNEARMLVDNRLRQLRRDASLQEYNQLQQVFKQTFL
# B3: nicked symmetric glnA half-site NtcA box (NtcA-DNA crystal) (dsDNA)
# DNA 1: CATTTTTATGTATC
# DNA 2: AGCTGATACATAAAAAT
# Columns and labels:
# crystal structure = target: the molecule itself; assay: crystal structure
# [1] = target: B1; assay: crystal structure
# NtcA = target: T1, NtcA (Synechococcus elongatus PCC7942, UniProt P29283 1-222); assay: X-ray crystallography
# T1 sequence: B1 chain
binder,measurement,setting,value
B1,binding result,crystal structure,binds
B2,binding result,[1],binds
B3,binding result,NtcA,binds
